Laboratory results from patent US20120093814A1, “Fusion Proteins Comprising Canine FC Portions” (BOEHRINGER INGELHEIM INTERNATIONAL GMBH, priority 2009, published 2012).
Positions of bridges follow the written chain, without caps; N, C: chain ends. No end group written: not given here.

What was measured:
[1] = molecular target: canine NPRA (natriuretic peptide receptor A), full length, stably expressed on HEK293 cells (canine (dog)); assay: cell-based or functional assay
[2] = system: conscious telemeterized beagles; assay: Hemodynamic assessment in telemeterized conscious dogs (Study #1 and Study #2); assay type: in vivo, dog; conditions: for effect on HR (figure legend) / effect on mean arterial blood pressure (figure legend): Days 1-4 post-dose
Experimental: The criteria for dose selection was that the dose could not decrease mean arterial blood pressure more than 5-10 mmHg below baseline, and that it should increase plasma cGMP concentration approximately 1.5×-2× above baseline. […] In study #1, a total of 5 dogs were dosed subcutaneously with vehicle, or ANP-caFc at 0.5, 1 and 2.5 mg/kg based on a modified Latin square design over a 4-week period. This dose-range was chosen because it was expected to overlap the targeted plasma cGMP elevation based on the single dose dog PK study. The dosing interval was 7 days. One animal was excluded from the final data analysis due to a failure of telemetry device during the study. ANP-caFc produced a dose-dependent increase in peak plasma levels of cGMP (3.7-, 3.5- and 6.6-fold—of vehicle day value FIG. 6), a dose-dependent peak reduction in mean arterial blood pressure (MAP; −13±5, −19±4, and −20±5 mmHg vs. vehicle—FIGS. 7A and 7B), and peak heart rate was increased (+30 ±10, +29 ±9, and +25 ±9 beats per minute—FIGS. 8A and 8B).
Since the MAP decreased more than 10 mmHg during the peak effect for all three doses, Study #2 was performed with lower doses (0.05 and 0.25 mg/kg) in the same 4 dogs using a similar study design. […] The 0.05 mg/kg dose of ANP-caFc had no effect of MAP (1.9±1.4 mmHg), HR (1.8±0.6 beats per minute), or plasma cGMP. (Urine samples were also collected for cGMP excretion measurements, however, samples were contaminated by drinking water and could not be used.)

[3] = Pharmacokinetics of ANP-caFc in conscious dogs following a single dose; assay type: in vivo, dog
Experimental: (§1) Dogs were administered a single IV dose (1 mg/kg or 17 nmol/kg) or SC dose (2.5 mg/kg or 42 nmol/kg) of ANP-caFc to assess PKPD over a period of 4 to 7 days. These doses were selected because they were similar to the dose-range employed to evaluate Cardeva (recombinant human serum albumin-BNP fusion protein) in dogs. […] The sensitivity of the ELISA used to reliably detect ANP-caFc in dog plasma was limited by having a minimum detection level in dog plasma of […]. In order to avoid plasma matrix effects, a minimum dilution of 1:50 was required when assaying beagle plasma. The linear range of the assay, in PBS, is […] to approximately 100 nM. In 2% beagle plasma the linear range of the curve is 1 nM to about 80 or 90 nM. FIG. 4 only provides an estimate of the estimated plasma levels and Table 2 presents the pharmacokinetics of ANP-caFc.

[4] = system: plasma cGMP; assay: Plasma cGMP levels in conscious dogs after IV and SC administration (preliminary PKPD); assay type: in vivo, dog; conditions: single SC dose 2.5 mg/kg
Experimental: as §1
Plasma cGMP following SC dosing appeared to be elevated above baseline ≧48 hours post-dose (FIG. 5).

[5] = molecular target: T1, canine NPRA (natriuretic peptide receptor A), full length, stably expressed on HEK293 cells (canine (dog), UniProt A0A8I3MHU3 32-1060); assay: cell-based or functional assay
T1 sequence: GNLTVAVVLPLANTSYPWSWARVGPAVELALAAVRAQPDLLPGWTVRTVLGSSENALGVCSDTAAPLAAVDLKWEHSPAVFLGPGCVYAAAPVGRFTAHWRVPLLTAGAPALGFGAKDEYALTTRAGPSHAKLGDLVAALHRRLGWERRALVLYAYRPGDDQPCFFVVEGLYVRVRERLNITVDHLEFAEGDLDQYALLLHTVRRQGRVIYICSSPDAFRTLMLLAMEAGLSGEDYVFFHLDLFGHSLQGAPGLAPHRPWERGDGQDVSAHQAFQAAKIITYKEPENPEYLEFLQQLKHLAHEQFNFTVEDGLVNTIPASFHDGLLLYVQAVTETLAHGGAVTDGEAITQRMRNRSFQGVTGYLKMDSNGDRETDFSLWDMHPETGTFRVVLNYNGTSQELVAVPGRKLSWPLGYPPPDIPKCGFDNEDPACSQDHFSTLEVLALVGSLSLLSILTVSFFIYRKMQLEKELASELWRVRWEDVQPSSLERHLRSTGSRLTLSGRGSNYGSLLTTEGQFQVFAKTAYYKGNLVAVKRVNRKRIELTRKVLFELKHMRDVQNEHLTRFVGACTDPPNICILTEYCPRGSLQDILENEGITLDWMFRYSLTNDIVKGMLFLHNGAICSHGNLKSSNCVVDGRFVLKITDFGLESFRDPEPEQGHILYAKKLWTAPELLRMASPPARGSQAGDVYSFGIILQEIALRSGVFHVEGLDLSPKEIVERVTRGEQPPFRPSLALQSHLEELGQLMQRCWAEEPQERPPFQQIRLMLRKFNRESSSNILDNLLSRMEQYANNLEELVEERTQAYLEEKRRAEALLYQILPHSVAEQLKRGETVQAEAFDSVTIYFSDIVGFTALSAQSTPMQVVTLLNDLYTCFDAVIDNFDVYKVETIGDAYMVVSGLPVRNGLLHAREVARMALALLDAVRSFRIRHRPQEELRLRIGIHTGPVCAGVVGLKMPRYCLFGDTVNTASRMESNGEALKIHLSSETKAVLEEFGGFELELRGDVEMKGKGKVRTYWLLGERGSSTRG

[6] = molecular target: T1, canine NPRA (natriuretic peptide …); assay: cell-based or functional assay; remark: listed apart in the source
[7] = single IV dose 1 mg/kg (17 nmol/kg)
[8] = single SC dose 2.5 mg/kg (42 nmol/kg)

B1: ANP28-20aa-CalgGB-Fc (recombinant canine ANP28 - (GGS)6GG linker - canine IgG-B Fc fusion protein) (Fc fusion)
chain: SLRRSSCFGGRMDRIGAQSGLGCNSFRYGGSGGSGGSGGSGGSGGSGGCPKCPAPEMLGGPSVFIFPPKPKDTLLIARTPEVTCVVVDLDPEDPEVQISWFVDGKQMQTAKTQPREEQFNGTYRVVSVLPIGHQDWLKGKQFTCKVNNKALPSPIERTISKARGQAHQPSVYVLPPSREELSKNTVSLTCLIKDFFPPDIDVEWQSNGQQEPESKYRTTPPQLDEDGSYFLYSKLSVDKSRWQRGDTFICAVMHEALHNHYTQESLSHSPGK
modifications: C-terminal Lysine residue missing in all lots produced (mass spectrometry); Fc glycosylated (G0, G1, G2)
cGMP EC50 (nM), Dog NPRA; lot 8760-110.3 [1]: 3 nM
cGMP EC50 (nM), Dog NPRA; lot 8760-137 [1]: 2.5 nM
cGMP EC50 (nM), Dog NPRA; lot 8760-174 [1]: 5.4 nM
cGMP EC50 (nM), Dog NPRA; lot 9081-51 [1]: 8.3 nM
cGMP EC50 (nM), Dog NPRA; lot 9081-53 [1]: 9.4 nM

B2: ANP-caFc: canine ANP-Fc fusion protein dosed to dogs; Fc isotype not stated, nmol/kg doses fit the IgG-B fusion (protein)
chain: SLRRSSCFGGRMDRIGAQSGLGCNSFRYGGSGGSGGSGGSGGSGGSGGCPKCPAPEMLGGPSVFIFPPKPKDTLLIARTPEVTCVVVDLDPEDPEVQISWFVDGKQMQTAKTQPREEQFNGTYRVVSVLPIGHQDWLKGKQFTCKVNNKALPSPIERTISKARGQAHQPSVYVLPPSREELSKNTVSLTCLIKDFFPPDIDVEWQSNGQQEPESKYRTTPPQLDEDGSYFLYSKLSVDKSRWQRGDTFICAVMHEALHNHYTQESLSHSPGK
increase in peak plasma levels of cGMP, of vehicle day value ([2]; Study #1, SC 0.5 mg/kg): 3.7 fold
peak heart rate increase ([2]; Study #1, SC 0.5 mg/kg): +30 ±10 beats per minute
peak reduction in mean arterial blood pressure (MAP) vs. vehicle ([2]; Study #1, SC 0.5 mg/kg): −13±5 mmHg
increase in peak plasma levels of cGMP, of vehicle day value ([2]; Study #1, SC 1 mg/kg): 3.5 fold
peak heart rate increase ([2]; Study #1, SC 1 mg/kg): +29 ±9 beats per minute
peak reduction in mean arterial blood pressure (MAP) vs. vehicle ([2]; Study #1, SC 1 mg/kg): −19±4 mmHg
increase in peak plasma levels of cGMP, of vehicle day value ([2]; Study #1, SC 2.5 mg/kg): 6.6 fold
peak heart rate increase ([2]; Study #1, SC 2.5 mg/kg): +25 ±9 beats per minute
peak reduction in mean arterial blood pressure (MAP) vs. vehicle ([2]; Study #1, SC 2.5 mg/kg): −20±5 mmHg
effect on HR (figure legend) ([2]; Study #1, subcutaneous): dose-dependently increased
effect on mean arterial blood pressure (figure legend) ([2]; Study #1, subcutaneous): dose-dependently decreased
change in HR ([2]; Study #2, SC 0.05 mg/kg): 1.8±0.6 beats per minute
change in MAP ([2]; Study #2, SC 0.05 mg/kg): 1.9±1.4 mmHg
effect on plasma cGMP ([2]; Study #2, SC 0.05 mg/kg): no effect
change in MAP vs. vehicle ([2]; Study #2, SC 0.25 mg/kg): −6.6±1.6 mmHg
effect on plasma cGMP ([2]; Study #2, SC 0.25 mg/kg): moderate increase
increase in heart rate ([2]; Study #2, SC 0.25 mg/kg): 20±9 beats per minute
effect on HR (figure legend) ([2]; Study #2, subcutaneous): dose-dependently increased
effect on mean arterial blood pressure (figure legend) ([2]; Study #2, subcutaneous): dose-dependently decreased
AUC [3, 7]: 2.0 ± 0.46 µM·h
MRT [3, 7]: 12.2 ± 1.9 h
T½ [3, 7]: 8.3 ± 2.0 h
Vss [3, 7]: 107 ± 13.0 mL/kg
AUC [3, 8]: 6.1 ± 0.3 µM·h
MRT [3, 8]: 41.6 ± 1.0 h
T½ [3, 8]: 15.4 ± 1.8 h
time plasma cGMP elevated above baseline post-dose [4]: ≥ 48 h

SLRRSSCFGGRMDRIGAQSGLGCNSFRY (disulfide 7-23 (inferred)) [canine ANP28]
cGMP EC50 (nM), cGMP induction on canine NPRA cells [5]: 0.2 nM
EC50 in the canine NPRA cGMP assay [6]: ~1 nM
